Test results taken from US20220144957A1 (IMMUNECENT BIOTECHNOLOGY, published 2022).
Read-outs that look alike come from different tables or passages of the source. Blank lines part the entries; values can stand above or below the binder they belong to.

What was measured:
Human IFNAR1 SD1-SD4 = target: T1, Human IFNAR1 SD1-SD4 (human, UniProt P17181 28-436, limits assumed); test: SPR (Biacore 8K), antibody captured on anti-human IgG Fc, antigen injected
T1 construct: domain: SD1-SD4; Antigen injected in the Biacore assay
T1 sequence (looked up): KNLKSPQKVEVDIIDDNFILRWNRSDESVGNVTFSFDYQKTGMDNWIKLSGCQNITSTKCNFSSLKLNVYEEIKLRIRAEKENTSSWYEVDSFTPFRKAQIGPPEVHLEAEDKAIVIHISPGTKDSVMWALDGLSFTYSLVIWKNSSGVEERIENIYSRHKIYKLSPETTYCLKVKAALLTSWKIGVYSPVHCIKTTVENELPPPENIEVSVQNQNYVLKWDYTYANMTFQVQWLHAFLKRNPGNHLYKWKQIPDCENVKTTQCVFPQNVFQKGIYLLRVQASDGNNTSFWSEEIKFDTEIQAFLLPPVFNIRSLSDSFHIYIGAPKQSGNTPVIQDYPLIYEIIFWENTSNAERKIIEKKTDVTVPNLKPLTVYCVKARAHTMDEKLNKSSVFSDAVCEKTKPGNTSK
Method: Preparation of a CM5 chip surface: Using HBS-EP+ (10 mM HEPES, 150 mM NaCl, 3 mM EDTA, 0.05% surfactant P20) as running buffer, both channel 1&2 of a CM5 sensor chip (GE Healthcare, BR-1000-30) were activated with a fresh mixture of 50 mM NHS and 200 mM EDC (1:1). Anti-human IgG Fc, 20 μg/ml in 10 mM NaOAc buffer (pH 5.0), was then passed over the activated surface of the two flow cells in each channel at 10 l/min (target around 10000 RU). […] Low flow rate was maintained over 2 hours for the equilibrium of the immobilized protein.
Measurement of binding kinetics: Each antibody was captured in flow cell FC2 in channel 1&2 around 250 RU respectively, using FC1 as the reference cell, followed by injection of antigen samples at varying concentrations. The signals with captured antibody subtracted from that without captured antibody were calculated with Biacore 8K evaluation software. The running buffer was HBS-EP+(10 mM HEPES, 150 mM NaCl, 3 mM EDTA, 0.05% surfactant P20).

human IFNAR1 ECD = target: T2, human IFNAR1 ECD (human, UniProt P17181 28-436); test: ELISA, plate coated with human IFNAR1 ECD, anti-human IgG Fc-peroxidase, OD450
T2 construct: extracellular domain; Coated on ELISA plates at 5 ug/ml
T2 sequence (looked up): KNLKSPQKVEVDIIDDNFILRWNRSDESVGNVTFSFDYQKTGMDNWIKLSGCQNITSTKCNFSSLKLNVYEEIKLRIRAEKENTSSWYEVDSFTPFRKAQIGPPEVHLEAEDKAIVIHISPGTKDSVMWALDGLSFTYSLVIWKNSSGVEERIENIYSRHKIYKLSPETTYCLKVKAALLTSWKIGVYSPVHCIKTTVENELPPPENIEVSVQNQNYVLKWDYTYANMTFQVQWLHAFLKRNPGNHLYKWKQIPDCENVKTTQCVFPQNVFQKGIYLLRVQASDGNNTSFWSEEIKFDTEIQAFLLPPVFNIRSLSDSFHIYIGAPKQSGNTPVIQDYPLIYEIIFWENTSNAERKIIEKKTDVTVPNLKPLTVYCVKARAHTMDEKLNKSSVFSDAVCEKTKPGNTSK
Method: 96-well plates were coated with 100ul 5 ug/ml human IFNAR1 ECD in 1×PBS and incubate at 4° C. overnight. The plates were then washed with PBST (1×PBS+0.05% Tween20) for 3 times and blocked with the blocking buffer (1×PBS+0.05% Tween20+1% BSA) at RT for 2 hr. […] The plates were washed with PBST for 3 times, followed by addition of antibody (Anti-Human IgG (Fc specific)-Peroxidase antibody produced in goat, ZSGB-BIO) at 100ul/well and then incubated at RT for 1 hr. The plates were washed with PBST 5 times and then 100ul/well TMB was added and after 15 minutes, the plates were quenched with 50ul/well 2N H₂SO₄. The plates were read with Molecular device spectra max at 450 nm.

[1] = target: T3, human IFNAR1, full length (IFNAR1-aa1-557) (human, UniProt P17181 28-557); test: flow cytometry on cells expressing human IFNAR1, MFI of PE
T3 construct: whole, on cells; Overexpressed on HEK293T cells from pIRES2-EGFP-IFNAR1; also used here for the human IFNAR1 of the IFN-I reporter cells and the cells of the virus assays; also called IFNAR1-WT; wild type IFNAR1
T3 sequence (looked up): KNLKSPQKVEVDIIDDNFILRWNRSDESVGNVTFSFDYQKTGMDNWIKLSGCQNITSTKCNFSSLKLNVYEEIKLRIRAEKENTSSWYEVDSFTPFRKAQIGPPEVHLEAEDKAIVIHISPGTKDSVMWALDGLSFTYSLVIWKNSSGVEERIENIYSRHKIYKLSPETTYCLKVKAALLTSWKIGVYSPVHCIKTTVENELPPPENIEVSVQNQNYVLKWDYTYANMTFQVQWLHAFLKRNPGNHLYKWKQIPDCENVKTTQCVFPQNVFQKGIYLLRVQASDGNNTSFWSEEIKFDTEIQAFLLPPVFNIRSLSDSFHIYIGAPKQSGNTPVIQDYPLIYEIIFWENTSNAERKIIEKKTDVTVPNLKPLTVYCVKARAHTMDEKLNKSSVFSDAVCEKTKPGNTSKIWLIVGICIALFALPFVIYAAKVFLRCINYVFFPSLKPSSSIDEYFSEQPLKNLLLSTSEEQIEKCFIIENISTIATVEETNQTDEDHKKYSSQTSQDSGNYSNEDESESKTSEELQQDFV

[2] = target: T3, human IFNAR1, full length …; test: as above; remark: listed apart in the source
[3] = target: T4, human IFNAR1, full length (IFNAR1-aa1-557) (human) (UniProt P17181); test: cell-based or functional assay
T4 sequence (looked up): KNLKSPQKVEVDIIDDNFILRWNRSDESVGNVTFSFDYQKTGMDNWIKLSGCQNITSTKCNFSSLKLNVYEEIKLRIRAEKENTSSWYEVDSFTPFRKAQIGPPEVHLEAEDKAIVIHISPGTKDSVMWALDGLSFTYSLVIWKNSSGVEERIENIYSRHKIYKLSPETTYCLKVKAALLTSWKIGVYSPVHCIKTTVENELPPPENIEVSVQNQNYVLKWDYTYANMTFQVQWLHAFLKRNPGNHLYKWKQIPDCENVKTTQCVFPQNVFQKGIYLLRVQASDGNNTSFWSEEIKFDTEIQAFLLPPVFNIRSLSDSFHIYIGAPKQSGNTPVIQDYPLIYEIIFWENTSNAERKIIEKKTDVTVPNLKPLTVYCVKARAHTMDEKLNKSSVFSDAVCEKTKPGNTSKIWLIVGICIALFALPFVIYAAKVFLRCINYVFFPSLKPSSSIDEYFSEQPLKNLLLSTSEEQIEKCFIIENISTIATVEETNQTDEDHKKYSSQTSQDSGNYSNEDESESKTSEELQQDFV

B1: Hu4-16 (antibody, V domains shown)
VH: QVQLVQSGAEVKKPGASVKVSCKASGYTFTSYWMNWVRQRPGQGLEWIGKIDPSDSETHFNQKFRDRVTLTVDKSTSTVYMELSSLRSEDTAVYYCARGGRISFDYDAALDYWGQGTLVTVSS
VL: DIQMTQSPSSLSASVGDRVTITCKSSEVIYNRLAWYQQKPGNAPKLLISGATTLESGVPSRFSGSGSGKDYTLTISSLQPEDFATYYCQQYWNKPFTFGQGTKLEIK
notes: Humanized 7G4 variant
Kd (Human IFNAR1 SD1-SD4): 0.466 nM | koff (Human IFNAR1 SD1-SD4): 0.00021 s⁻¹ | kon (Human IFNAR1 SD1-SD4): 451000 M⁻¹ s⁻¹ | EC50 (human IFNAR1 ECD): 3.15 ng/mL | Top (human IFNAR1 ECD): 3.31 OD450

B2: Hu4-6 (antibody, V domains shown)
VH: QVQLVQSGAEVKKPGASVKVSCKASGYTFTSYWMNWVRQAPGQGLEWMGKIDPSDSETHFNQKFRDRVTLTVDKSTSTVYMELSSLRSEDTAVYYCARGGRISFDYDAALDYWGQGTLVTVSS
VL: DIQMTQSPSSLSASVGDRVTITCKSSEVIYNRLAWYQQKPGKAPKLLIYGATTLESGVPSRFSGSGSGKDYTLTISSLQPEDFATYYCQQYWNKPFTFGQGTKLEIK
notes: Humanized 7G4 variant
Kd (Human IFNAR1 SD1-SD4): 0.633 nM | koff (Human IFNAR1 SD1-SD4): 0.000281 s⁻¹ | kon (Human IFNAR1 SD1-SD4): 444000 M⁻¹ s⁻¹ | EC50 (human IFNAR1 ECD): 3.21 ng/mL | Top (human IFNAR1 ECD): 3.35 OD450 | EC50 (read off the curve) [1]: ~0.04 µg/mL | EC50 (read off the curve) [2]: ~0.06 µg/mL

B3: Hu4-6-mut-2 (antibody, V domains shown)
VH: QVQLVQSGAEVKKPGASVKVSCKASGYTFTSYWMNWVRQAPGQGLEWMGKIDPSDSETHFNQKFRDRVTLTVDKSTSTVYMELSSLRSEDTAVYYCARGGRISFDYDAALDYWGQGTLVTVSS
VL: DIQMTQSPSSLSASVGDRVTITCKSSEVIYNRLAWYQQKPGKAPKLLIYGATSLETGVPSRFSGSGSGKDYTLTISSLQPEDFATYYCQQYWNKPFTFGQGTKLEIK
notes: Hu4-6 with T53S and S56T in VL (LCDR2)
EC50 (read off the curve) [2]: ~0.06 µg/mL

B4: Hu4-6-mut-1 (antibody, V domains shown)
VH: QVQLVQSGAEVKKPGASVKVSCKASGYTFTSYWMNWVRQAPGQGLEWMGKIDPSDSETHFNQKFRDRVTLTVDKSTSTVYMELSSLRSEDTAVYYCARGGRISFDYDGALDYWGQGTLVTVSS
VL: DIQMTQSPSSLSASVGDRVTITCKSSEVIYNRLAWYQQKPGKAPKLLIYGATTLESGVPSRFSGSGSGKDYTLTISSLQPEDFATYYCQQYWNKPFTFGQGTKLEIK
notes: Hu4-6 with A108G in VH (HCDR3)
EC50 (read off the curve) [2]: ~0.07 µg/mL

B5: Hu4-6-mut-3 (antibody, V domains shown)
VH: QVQLVQSGAEVKKPGASVKVSCKASGYTFTSYWMNWVRQAPGQGLEWMGKIDPSDSETHFNQKFRDRVTLTVDKSTSTVYMELSSLRSEDTAVYYCARGGRISFDYDGALDYWGQGTLVTVSS
VL: DIQMTQSPSSLSASVGDRVTITCKSSEVIYNRLAWYQQKPGKAPKLLIYGATSLETGVPSRFSGSGSGKDYTLTISSLQPEDFATYYCQQYWNKPFTFGQGTKLEIK
notes: Hu4-6 with A108G in VH and T53S and S56T in VL
EC50 (read off the curve) [2]: ~0.06 µg/mL

Second part, the binder after the results:

blocking effect on GFP expression induced by IFNα1 in IFN-I reporter cells (++ = greater than 80%) [3]: > 80% | blocking effect on GFP expression induced by IFNα2a in IFN-I reporter cells (++ = greater than 80%) [3]: > 80% | blocking effect on GFP expression induced by IFNα2b in IFN-I reporter cells (++ = greater than 80%) [3]: > 80% | blocking effect on GFP expression induced by IFNα4 in IFN-I reporter cells (++ = greater than 80%) [3]: > 80% | blocking effect on GFP expression induced by IFNα5 in IFN-I reporter cells (++ = greater than 80%) [3]: > 80% | blocking effect on GFP expression induced by IFNα6 in IFN-I reporter cells (++ = greater than 80%) [3]: > 80% | blocking effect on GFP expression induced by IFNα7 in IFN-I reporter cells (++ = greater than 80%) [3]: > 80% | blocking effect on GFP expression induced by IFNα8 in IFN-I reporter cells (++ = greater than 80%) [3]: > 80% | blocking effect on GFP expression induced by IFNα10 in IFN-I reporter cells (++ = greater than 80%) [3]: > 80% | blocking effect on GFP expression induced by IFNα14 in IFN-I reporter cells (++ = greater than 80%) [3]: > 80% | blocking effect on GFP expression induced by IFNα16 in IFN-I reporter cells (++ = greater than 80%) [3]: > 80% | blocking effect on GFP expression induced by IFNα17 in IFN-I reporter cells (++ = greater than 80%) [3]: > 80% | blocking effect on GFP expression induced by IFNα21 in IFN-I reporter cells (++ = greater than 80%) [3]: > 80% | blocking effect on GFP expression induced by IFNω in IFN-I reporter cells (++ = greater than 80%) [3]: > 80%
B6: IFNAR1 monoclonal antibody 10C9 (antibody, from another filing, V domains shown)
VH: QIQLVQSGPELKKPGETVKISCKASGYTFTNYGVNWMKQAPGKGLKWMGWINTYTGEPTYADDFKGRFAFSLETSASTAYLQINNLKNEDTATYFCAREGVYYYGDWAWLAYWGQGTLVTVSA
VL: DIVMTQSQKFISTSVGDRVSVTCKASQNVGTNVAWYQQKPGQSPKTLIYSTSYRYNGVPDRFTGSGSGTDFTLTISNVQSEDLAEYFCQQYNSYYTFGGGTKLEIK

blocking effect on GFP expression induced by IFNα1 in IFN-I reporter cells (++ = greater than 80%) [3]: > 80% | blocking effect on GFP expression induced by IFNα2a in IFN-I reporter cells (++ = greater than 80%) [3]: > 80% | blocking effect on GFP expression induced by IFNα2b in IFN-I reporter cells (++ = greater than 80%) [3]: > 80% | blocking effect on GFP expression induced by IFNα4 in IFN-I reporter cells (++ = greater than 80%) [3]: > 80% | blocking effect on GFP expression induced by IFNα5 in IFN-I reporter cells (++ = greater than 80%) [3]: > 80% | blocking effect on GFP expression induced by IFNα6 in IFN-I reporter cells (++ = greater than 80%) [3]: > 80% | blocking effect on GFP expression induced by IFNα7 in IFN-I reporter cells (++ = greater than 80%) [3]: > 80% | blocking effect on GFP expression induced by IFNα8 in IFN-I reporter cells (++ = greater than 80%) [3]: > 80% | blocking effect on GFP expression induced by IFNα10 in IFN-I reporter cells (++ = greater than 80%) [3]: > 80% | blocking effect on GFP expression induced by IFNα14 in IFN-I reporter cells (++ = greater than 80%) [3]: > 80% | blocking effect on GFP expression induced by IFNα16 in IFN-I reporter cells (++ = greater than 80%) [3]: > 80% | blocking effect on GFP expression induced by IFNα17 in IFN-I reporter cells (++ = greater than 80%) [3]: > 80% | blocking effect on GFP expression induced by IFNα21 in IFN-I reporter cells (++ = greater than 80%) [3]: > 80% | blocking effect on GFP expression induced by IFNω in IFN-I reporter cells (++ = greater than 80%) [3]: > 80% | fold decrease in percentage of GFP positive reporter cells with serum from SLE patients [3]: 3 fold | percentage of GFP positive reporter cells with human IFNβ and 10 µg/mL antibody [3]: 20%
B7: IFNAR1 monoclonal antibody 10C2 (antibody, from another filing, V domains shown)
VH: QIQLVQSGPELKKPGETVKISCKASGYTFTNYGMNWVKQAPGKGLKWMGWINTYTGEPTYSDDFKGRFAFSLETSASTANLQINNLKDEDAATYFCAREGAIYYGDYVYFGVWGAGTTVTVSS
VL: DIVMTQSQKFMSTSVGDRVSITCKASQNVGTAVAWYQEKPGQSPKLLIYSASNRYTGVPDRFTGSGSGTAFTLTISNMQSEDLADYFCQQYYNYPLTFGAGTKLEVKR
